Reference: the RNAGym collection of RNA variant scans (doi:10.1073/pnas.2313332121)
Fewer inactive variants are shown than the library holds.

B1: TPR 5TU (parent)
chain: GGAUCUUCUCGAUCUAACAAAAAAGACAAAUCUGCCACAAAGCUUGAGAGCAUCUUCGGAUGCAGAGGCGGCAGCCUUCGGUGGCGCGAUAGCGCCAACGUUCUCAACUAUGACACGCAAAACGCGUGCUCCGUUGAAUGGAGUUUAUCAUG

Variants of: B1
Assay: polymerase ribozyme fitness, log enrichment relative to wild type (log ratio); higher = more active; in vitro selection for triplet polymerase activity
Summary of the method: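 Fitness is a logarithmic measure of how a genotype enriched relative to the wild type, with replicate averages weighted by inverse variance. The logarithm uses base 2, and enrichment came from Illumina sequencing of input and output libraries. Those libraries were PCR-built, transcribed mutants of each subunit of a heterodimeric triplet polymerase ribozyme, passed through one triplicate in vitro selection round that included frozen incubation at −7 °C, gel excision of extended constructs and streptavidin-bead capture. Genotypes were kept only if they had ≥10 input reads and ≥1 read per output.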

Row | Variant | polymerase ribozyme fitness (log ratio)
1 | C51U G67A G83U G94A A98C C99G U109C A120U U145G | ≤ -4.2
2 | A52C C57U G80C A98U | -2.02
3 | C51G C72A C79A G94A | ≤ -4.2
4 | C51A U55G | -2.17
5 | C51U A142C | -0.909
6 | G50C U53A C57G G70A G100C A120G | ≤ -4.2
7 | U53A C95U U104G A115U C123U | -3.81
8 | A52G C93U U101C C105U | -2.43
9 | A52G A113U A150C | ≤ -4.2
10 | C51U G70A A91C A97C U144C | ≤ -4.2
11 | C51U A89U G92C C129U | -2.18
12 | A52C G94C | -2.26
13 | A52C G83A | -2.46
14 | A52G G58C | 0.885
15 | C51U A52C | -1.33
16 | C51U G70C C93G | ≤ -4.2
17 | C51U G58C A73G G81A C116U | -0.931
18 | C51A C57G | -2.19
19 | G50U G58A A66U C79U C87U G88C A121C | ≤ -4.2
20 | G50C U56A C57G A66G C95A C99U A113G G140A | -4.04
21 | U53A C54G C95A | -1.73
22 | G50U C54U G81C C85A G117A | -0.79
23 | A52G G59C A60C C96G G126A A142U | ≤ -4.2
24 | G50C G86C | ≤ -4.2

Row | Variant | polymerase ribozyme fitness (log ratio)
25 | G50C G86U | -3.89
26 | A52U C105U | -1.7
27 | U53A C95A | -0.902
28 | G50U A107U | -3.73
29 | U53A C85U C105G | ≤ -4.2
30 | G50U A97G | -0.0233
31 | G50U C85A A97U G140A | ≤ -4.2
32 | A52U U82C G92U C116G A121U | -3.06
33 | C51G G81C C85G C123U G143A | -3.82
34 | G50U C132U | -0.763
35 | C51G G92C | -2.71
36 | G50U G92C | -0.0562
37 | U53A C76U A142G | -2.87
38 | C51G G94A | -1.79
39 | C51U G80A G81A A150U | -1.5
40 | U53A C69G G83A G117U U145C | -3.13
41 | G50C U53C G83A C95G | ≤ -4.2
42 | G50U U144A | -0.478
43 | C51U G59C | 0.723
44 | U53A C57A | -0.577
45 | U53A C57U | -1.2
46 | A52C A66C C69A C87G G133U | ≤ -4.2
47 | G50C U56G A64G G83A C105G U109G | ≤ -4.2
48 | A52C U53A C85U A107U A119C C125U | ≤ -4.2

Row | Variant | polymerase ribozyme fitness (log ratio)
49 | A52C C75U G88C C96U C105G G136U | ≤ -4.2
50 | A52U G86C A91C U139C | ≤ -4.2
51 | U53A C85A | -4
52 | U53A C85G | -3.15
53 | A52U G59C U101G A122U U144C | -2.67
54 | C51U U55G A98U A115G | -3.09
55 | A52G C105A | -0.578
56 | A52G A60G U77G A91U G133U | ≤ -4.2
57 | A52C A115G | -2.09
58 | A52U A89C | -3.05
59 | A52U C63U C85U C116G | -0.741
60 | G50U A64G | ≤ -4.2
61 | C51U G86U U145G | -2.27
62 | C51G A60G A73G C123G | -3.71
63 | A52G G74A A137U | ≤ -4.2
64 | A52G G143C | -3.77
65 | A52G U56A A64C G92U | ≤ -4.2
66 | U53A C87U A150U | -0.451
67 | U53A C76A C87U A107C | ≤ -4.2
68 | C51U C75U C87U U104C A115G A121U A142C | -4.13
69 | C51G | -1.58
70 | C51A | -0.687
71 | C51U | -0.394
72 | C51U G94U C114A G140A | ≤ -4.2

Row | Variant | polymerase ribozyme fitness (log ratio)
73 | A52C C69A C105U | -3.13
74 | C51U U56G C75U U134C | -2.81
75 | A52G C72U | -0.83
76 | G50U A52G C99G | -2.55
77 | G50C G65C C87U | -4.13
78 | C51U G92U C93U C95U | -2.56
79 | A52C U56A G86A U90A A107C | ≤ -4.2
80 | G50C G83C G94A C132U U135C A142U | ≤ -4.2
81 | A52C U55A A60C C76U G83A C85U C129G A150G | ≤ -4.2
82 | G50U G62U U101C | -1
83 | C51U U55A C96A | -1.8
84 | A52G C69U C93U | -2.89
85 | U53A C87A A107C C108A U111G U146C U148A | ≤ -4.2
86 | A52G C85A A89G | -3.57
87 | A52G C96G C131U | -0.425
88 | A52G C63G | -0.179
89 | A52C C93U | -2.33
90 | A52G G67A G126U | ≤ -4.2
91 | A52G U55A | -0.0825
92 | A52G U55C | -0.523
93 | U53A A91G U144G | -2.54
94 | A52G U82A C96G | 0.187
95 | U53A A60U U77C G80C A91G A142C | ≤ -4.2
96 | G50U C87U A115U U144A | -3.8

Row | Variant | polymerase ribozyme fitness (log ratio)
97 | C51U G58U A91U C96U G100C A138C | ≤ -4.2
98 | A52C A91C | ≤ -4.2
99 | A52C C63U C93A A107U C125U U146A | ≤ -4.2
100 | A52C C87A G88U U135C | ≤ -4.2
101 | U53A A110G | -3.7
102 | U53A C96A C125U | -1.41
103 | A52C G70C C85U C125U | ≤ -4.2
104 | C51U A60G C79G C85G C129A | ≤ -4.2
105 | C51U U56A A91G | -3.44
106 | G50C C57A A64U U78G | ≤ -4.2
107 | G50C G126A | -2.28
108 | A52G C95A C99A | -1.54
109 | C51A U55G G88C C95A A119C | ≤ -4.2
110 | G50C G74A U77G C93G U135A U139A | ≤ -4.2
111 | A52C C103U | -0.611
112 | A52C C87U A91U C116U G128U | ≤ -4.2
113 | C51U C57A C63U G65C | ≤ -4.2
114 | C51A G84C | -2.99
115 | C51A G84A | -1.26
116 | C51A C54U C85U | -1.93
117 | C51U C93G | -3.69
118 | G50U G83U G128C | -3.62
119 | G50U G74A C93U A106C U148C | ≤ -4.2
120 | A52U C85U | -1.59

Row | Variant | polymerase ribozyme fitness (log ratio)
121 | C51U A60U | -0.791
122 | A52C C76U U101G | -4.01
123 | G50C G74A G92U | ≤ -4.2
124 | A52G G65A G68U G92U C103U A119U U139C | ≤ -4.2
125 | U53A C93U | -2.51
126 | A52G U53A | -0.907
127 | C51U A60G G86A | -1.75
128 | A52G U55C C105G U109A | -1.97
129 | U53A A73G U78C G133A | ≤ -4.2
130 | A52C U55A | -1.69
131 | G50C G59C U102G | -2.34
132 | G50U C76A G126U U148G | ≤ -4.2
133 | A52G C75U | -0.679
134 | A52G G59C C99U | -1.42
135 | A52G G83A C118U A150G | -2.35
136 | G50U A52C C57A G58U A107G | ≤ -4.2
137 | A52C U148G | ≤ -4.2
138 | C51U G59A C95A C125G | -1.53
139 | G50C C85A U144G | ≤ -4.2
140 | A52G C87U C116U C149G | -3.76
141 | A52C A73U C85A C103A | ≤ -4.2
142 | G50U C57U A110G G140A | ≤ -4.2
143 | C51A G65A G81U C96G A106U G136U | ≤ -4.2
144 | A52U C87U | -2.81

Row | Variant | polymerase ribozyme fitness (log ratio)
145 | A52U G84A G117C | -0.726
146 | U53A C75U C103U | -3.14
147 | G50C C103A U139C | ≤ -4.2
148 | A52U G84U | -2.48
149 | G50C C75G C85A C132U | ≤ -4.2
150 | A52C A66G G71U C125U | ≤ -4.2
151 | G50U C85G | -3.51
152 | A52C A138G | -3.62
153 | A52G C93A G140A | ≤ -4.2
154 | G50C G83A C87U G141U | ≤ -4.2
155 | A52U G58U U90C C118U G126C A138C | ≤ -4.2
156 | A52G G83C | -2.18
157 | C51U C87A A91U U144G | ≤ -4.2
158 | C51A C57A C95A G126A A147G | ≤ -4.2
159 | A52G G58U G84U C96A C99U | -4.02
160 | C51U C69A C96U G141C | -3.18
161 | G50U A91G C103G | ≤ -4.2
162 | C51U G94A C96U G126C | -1.72
163 | U53A C79A | ≤ -4.2
164 | A52U U55A C87G | ≤ -4.2
165 | U53A C79G C108U G136A U144G | ≤ -4.2
166 | C51U A98U | -0.337
167 | A52U G71C G92A C96G | ≤ -4.2
